The chains are these.
B1: His-TRAF5_(363-557) (domain or fragment)
chain: DQRLAVLEEETNKHDTHINIHKAQLSKNEERFKLLEGTCYNGKLIWKVTDYKMKKREAVDGHTVSIFSQSFYTSRCGYRLCARAYLNGDGSGRGSHLSLYFVVMRGEFDSLLQWPFRQRVTLMLLDQSGKKNIMETFKPDPNSSSFKRPDGEMNIASGCPRFVAHSVLENAKNAYIKDDTLFLKVAVDLTDLEDL
notes: source: E. coli BL21 Codon Plus RIPL, purified (Ni-NTA)
B2: GST-LMP1_(181-386) (domain or fragment)
chain: LIWMYYHGQRHSDEHHHDDSLPHPQQATDDSGHESDSNSNEGRHHLLVSGAGDGPPLCSQNLGAPGGGPDNGPQDPDNTDDNGPQDPDNTDDNGPHDPLPQDPDNTDDNGPQDPDNTDDNGPHDPLPHSPSDSAGNDGGPPQLTEEVENKGGDQGPPLMTDGGGGHSHDSGHGGGDPHLPTLLLGSSGSGGDDDDPHGPVQLSYYD
notes: also called LMP1 wild-type; LMP1 signalling domain; source: E. coli DH5α or BL21 Codon Plus RIPL, purified (glutathione Sepharose 4B)
B3: LMP1-derived CTAR2 peptide 8 (amino acids 371-386, 16mer) (peptide)
peptide: GDDDDPHGPVQLSYYD
notes: source: synthetic peptide, spot-synthesised on cellulose membrane
B4: LMP1-derived CTAR2 peptide 11 (amino acids 357-386, 30mer) (peptide)
peptide: PHLPTLLLGSSGSGGDDDDPHGPVQLSYYD
notes: as for B3
B5: His-TRAF1_(226-416) (domain or fragment)
chain: RERILSLEQRVVELQQTLAQKDQALGKLEQSLRLMEEASFDGTFLWKITNVTRRCHESACGRTVSLFSPAFYTAKYGYKLCLRLYLNGDGTGKRTHLSLFIVIMRGEYDALLPWPFRNKVTFMLLDQNNREHAIDAFRPDLSSASFQRPQSETNVASGCPLFFPLSKLQSPKHAYVKDDTMFLKCIVETST
notes: as for B1

Assay [1] addresses B2. Kind of assay: pull-down. The settings on record: both partners purified.
Assay [2] addresses T1, His-TRAF6_(310-522) K469A (human, UniProt Q9Y4K3 310-522, K469A).
T1 construct: also called TRAF6 K469A; source: E. coli BL21 Codon Plus RIPL, purified (Ni-NTA)
T1 sequence: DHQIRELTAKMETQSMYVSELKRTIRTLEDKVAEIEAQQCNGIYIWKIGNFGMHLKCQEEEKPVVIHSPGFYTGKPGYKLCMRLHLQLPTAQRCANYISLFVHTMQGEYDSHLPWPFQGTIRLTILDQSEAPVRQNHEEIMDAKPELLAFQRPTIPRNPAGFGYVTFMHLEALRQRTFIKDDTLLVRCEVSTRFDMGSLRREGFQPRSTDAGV
As to the kind of experiment: AlphaScreen or HTRF; AlphaScreen PPI assay: His-TRAF and GST-LMP1, GST-CD40 or GST-RANK in PBS with 0.5% BSA and 0.1% Tween-20, 1 h at RT; standard 300 nM His-TRAF and 100 nM GST protein if not indicated otherwise; for KD His-TRAF6 at different concentrations, fit one site-specific binding with hill slope. The settings on record: both partners purified. (In general: In Alpha technology, singlet oxygen from a donor bead excites a nearby acceptor bead.)

Assay [3] has as its target T2, His-TRAF6_(310-522) (human, UniProt Q9Y4K3 310-522).
T2 construct: also called His-T6; recombinant TRAF6 wild-type; source: E. coli BL21 Codon Plus RIPL, purified (Ni-NTA)
T2 sequence: T1 sequence with A160K
Described as above. The settings on record: both partners purified.

For assay [4], the target named is T2, His-TRAF6_(310-522). Kind of assay: peptide or protein array; peptides spot-synthesised on cellulose membranes in duplicate, incubated with 10 µg per mL purified His-TRAF6 or His-TRAF2 in PBST with 5% milk powder for 4 h at RT; detection by TRAF-specific antibodies. The settings on record: both partners purified.
Assay [5] addresses T3, His-TRAF6_(310-522) (human, UniProt Q9Y4K3 310-522).
T3 chain: T1 sequence with A160K

Where a chain is given by its changes, count along the chain named. In names and notes the source's numbering stands. Where two headings read alike, the source gives them in different places.

From PMC10776578, “Epstein-Barr virus-driven B cell lymphoma mediated by a direct LMP1-TRAF6 complex” (Nature Communications, 2024) come the findings set out here.

With B1, the binding result in assay [1] is recorded as “binds”. For orientation: Kd means the free concentration of one partner at which half of the binding sites on the other are occupied at equilibrium, for simple one-to-one binding. B2: the binding result in assay [2] is “binds”. The affinity in assay [3], expressed as Kd, was 73.2 nM.

Consider B3, for which the binding result in assay [4] was “binds”.

For B4, the binding result in assay [4] is reported as “binds”. Regarding B5, the binding result in assay [1] is listed as “binds”.

In the case of GGGPYAQGEDARMLSLVSKTEIEEDSFRQMPTQDEYMDRPSQ (domain or fragment) [GST-RANK_(314-355) E346Q], the Kd in assay [5] is 15.6 nM.
